Source: paper PMC6973313 (mAbs, 2020)

Biological target: T1, Mouse GIPR extracellular domain (residues 19 to 134) (mouse, UniProt Q0P543 19-134)
T1 sequence: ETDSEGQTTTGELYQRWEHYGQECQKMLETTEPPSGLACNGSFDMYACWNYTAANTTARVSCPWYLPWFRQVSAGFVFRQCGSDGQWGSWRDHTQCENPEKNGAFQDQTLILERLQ
Assay: crystal structure

B1: Fab of mAb1 (Fab1) (Fab, V domains shown)
VH: DVQLVESGGGLVQPGGSRKLSCAASGFTFSSFGMHWVRQAPEKGLEWVAYISSGSSTIYYADTVKGRFTISRDNPKNTLFLQMTSLRSEDTAMYYCARGKYPTWIAYWGQGTLVTVSA
VL: DIVMTQSPSSLTVTAGEKVTMSCKSSQSLLNSGNQKNYLTWYQQKPGQPPKLLISWASTRDSGVPDRFTGSGSGTDFTLTISSVQAEDLAVYYCQNDYSYPLTFGAGTKLELKR
B1: binds.
